In patent US20230279130A1 (QILU PUGET SOUND BIOTHERAPEUTICS, published 2023):
Where a chain is given by its changes, count along the chain named.

Experiments:
[1] = molecular target: T1, recombinant hCCR8 N-terminus fused at the N-terminal of Fc region of human IgG1 (human); experiment: SPR (Biacore 3000), Fab flowed over captured CCR8-fc; column head printed 'K0' (KD)
T1 construct: also called recombinant huCCR8-N terminus antigen; huCCR8 N-terminus protein; not shown: Fc region of human IgG1
Procedure: (§1) FIGS. 1A-1D: Binding of anti-CCR8 Fabs to recombinant huCCR8-N terminus antigen (Seq No.1). Binding affinity of anti-CCR8 Fabs for huCCR8 N-terminus protein was determined by Biacore analysis. Digested anti-CCR8 Fab fragments were flowed over captured antigen.
(§2) The affinity of the candidate antibodies for human CCR8 was assessed using SPR on a Biacore 3000 instrument. Anti-CCR8 Fab fragments were flowed over the cells in the chip with multiple blank (running buffer) injections also run to subtract system artifacts. The data were aligned, double referenced, and fit using SCRUBBER 2™ software (BioLogic Software, Pty, Australia). […] The binding of anti-CCR8 antibodies to CCR8 was then examined in HEK293 cells or P815 cells transfected with full-length hCCR8.

[2] = molecular target: T2, full length human CCR8 (hCCR8) (human, UniProt P51685 1-355); experiment: cell-based or functional assay
[3] = molecular target: T2, full length human CCR8 (hCCR8); experiment: cell-based or functional assay; remark: listed apart in the source
[4] = molecular target: T1, recombinant hCCR8 N-terminus fused at …; experiment: SPR, Biacore 3000; Fab flowed over captured hCCR8 N-terminus-Fc
Procedure: as §1, §2

T1 sequence (chain, as listed by the source): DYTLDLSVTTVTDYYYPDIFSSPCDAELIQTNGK

B1: engineered anti CCR8 Fab 1047 (Fab, V domains shown)
VH: EVQLVESGGGVVQPGRSLRLSCAASGFPFEPFAMNWVRQAPGKGLEWVARIRSKANNYATYYADSVKDRFAISRDNSKSTLYLLMHSLRFEDTAVYYCVRGRENNYGYAMDYWGQGTTVTVSS
VL: DVVMTQSPPSLPVTLGQSASISCRSSQSLLHSNGITYLYWFLQRPGQSPRLLIYRMSNLASGVPDRFSGSGSGTDFTLRISRVEAEDVGVYYCMQHLTYPFTFGIGTKVEIK
notes: Fab made by digesting the antibody; also called Fab fragment of 1047
For B1, the Kd [1] was 0.876 nM and the “average IC50 of inhibition of CCL1-mediated chemotaxis of hCCR8 P815 cells” value (from here on “average IC50 of inhibition … of hCCR8 P815 cells”) [2] was 1.09 nM.

B2: Fab fragment of anti-CCR8 antibody 1434 (Fab, V domains shown)
VH: B1 VH with V11L, R16G, A49G, A71T, N76D, S79R, T80S, H86N, R89K
VL: B1 VL with P9L, S18P, L42Q, L51R, R79K
With B2 the “average IC50 of inhibition … of hCCR8 P815 cells” value [2] was 0.414 nM.

B3: anti-CCR8 antibody 1187 (antibody, V domains shown)
VH: B1 VH with S79R
VL: B1 VL
In the case of B3, the “IC50, inhibition of chemotaxis of hCCR8-transfected P815 cells to 1 nM CCL1 (intact IgG1, Cell Titer Glo)” value [3] is reported as 0.00403 µg/mL.

B4: Fab fragment of anti-CCR8 antibody 1187 (Fab, V domains shown)
VH: B1 VH with S79R
VL: B1 VL
notes: also called Fab 51
With B4 the Kd [4] was 0.647 nM, the “fold improvement of binding affinity against the original anti-CCR8 antibody candidate” value [4] was 2.5 fold and the “IC50 of inhibition of CCL1-mediated chemotaxis of hCCR8 P815 cells” value [2] was about 0.035 µg/mL. The “average IC50 of inhibition … of hCCR8 P815 cells” value [2] was 0.254 nM.

B5: engineered anti-CCR8 Fab 953 (Fab, V domains shown)
VH: B1 VH with N105R
VL: B1 VL
notes: Fab made by digesting the antibody
For B5, the Kd [1] was 0.385 nM and the “average IC50 of inhibition … of hCCR8 P815 cells” value [2] was 0.15 nM.
